From the supplement of paper PMC10724198
± gives the standard deviation of the averaged measurements.

How the values were obtained:
Saccharomyces cerevisiae [1] = assay: protein stability index of tFT-peptide fusion (C-terminal peptide) (PSI (0-1 scale)); higher = more stable (slower turnover); settings: genetic background: wild type; temperature: 30 C
Saccharomyces cerevisiae [2] = assay: as above
Procedure: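 MPS profiling in S. cerevisiae of the tFT-X12 degron library: putative degron peptides plus stable controls, 12 aa, fused to the C-terminus of a sfGFP-mCherry timer. Cells are FACS-sorted into 8 mCherry/sfGFP bins and deep-sequenced. PSI runs from 0 (unstable) to 1 (stable). Backgrounds are wild type, das1Δ and doa10Δ at 30 °C, and wild type, das1Δ, cdc34-1 and cdc53-1 at 37 °C; 2-3 technical replicates each.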

[3] = genetic background: cdc34-1, temperature: 37 C
[4] = genetic background: cdc53-1, temperature: 37 C
[5] = genetic background: das1 deletion, temperature: 30 C
[6] = genetic background: das1 deletion, temperature: 37 C
[7] = genetic background: doa10 deletion, temperature: 30 C
[8] = genetic background: wild type, temperature: 30 C
[9] = genetic background: wild type, temperature: 37 C
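Further: PSI is a weighted mean of sequencing reads over stability bins, variants kept only with over 10 reads, mCherry proximal and sfGFP distal, peptide attached via GGGS linker.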

Sequence | protein stability index (Saccharomyces cerevisiae [1]) | protein stability index (Saccharomyces cerevisiae [2]; [3]) | protein stability index (Saccharomyces cerevisiae [2]; [4]) | protein stability index (Saccharomyces cerevisiae [2]; [5]) | protein stability index (Saccharomyces cerevisiae [2]; [6]) | protein stability index (Saccharomyces cerevisiae [2]; [7]) | protein stability index (Saccharomyces cerevisiae [2]; [8]) | protein stability index (Saccharomyces cerevisiae [2]; [9])
VLDLLRHGFLWQ | 0.761 ± 0.071 | 0.686 ± 0.051 | 0.736 ± 0.0032 | 0.706 ± 0.024 | 0.727 ± 0.011 | 0.689 ± 0.017 | 0.6984 ± 0.0056 | 0.7119 ± 0.0068
VLFFVLGVLVCL | 0.397 ± 0.043 | 0.319 ± 0.019 | 0.429 ± 0.019 | 0.348 ± 0.027 | 0.471 ± 0.01 | 0.319 ± 0.021 | 0.338 ± 0.019 | 0.441 ± 0.026
VLFIKKTLMRIQ | 0.396 ± 0.0084 | 0.558 ± 0.008 | 0.685 ± 0.0057 | 0.621 ± 0.0064 | 0.66 ± 0.015 | 0.268 ± 0.025 | 0.331 ± 0.027 | 0.537 ± 0.045
VLFVLFASWFPR | 0.487 ± 0.0066 | 0.453 ± 0.023 | 0.4772 ± 0.002 | 0.375 ± 0.027 | 0.5458 ± 0.0053 | 0.3679 ± 0.0025 | 0.361 ± 0.024 | 0.529 ± 0.047
VLFVVLVASGLG | 0.299 ± 0.023 | 0.215 ± 0.015 | 0.312 ± 0.007 | 0.204 ± 0.032 | 0.4008 ± 0.00043 | 0.163 ± 0.01 | 0.206 ± 0.026 | 0.4012 ± 0.0037
VLPQSVWILVRV | 0.2609 ± 0.0026 | 0.0621 ± 0.016 | 0.0737 ± 0.0062 | 0.172 ± 0.024 | 0.236 ± 0.012 | 0.144 ± 0.021 | 0.155 ± 0.032 | 0.1936 ± 0.0014
VLSFWAFLFLLF | 0.335 ± 0.011 | 0.428 ± 0.012 | 0.412 ± 0.026 | 0.398 ± 0.023 | 0.488 ± 0.015 | 0.31 ± 0.013 | 0.282 ± 0.0089 | 0.3785 ± 0.0022
VLSWRAWGESGV | 0.445 ± 0.024 | 0.387 ± 0.02 | 0.426 ± 0.015 | 0.466 ± 0.032 | 0.392 ± 0.014 | 0.493 ± 0.03 | 0.468 ± 0.011 | 0.382 ± 0.007
VMFWRGVWLSFC | 0.268 ± 0.03 | 0.313 ± 0.036 | 0.361 ± 0.049 | 0.45 ± 0.019 | 0.572 ± 0.03 | 0.23 ± 0.0033 | 0.197 ± 0.016 | 0.335 ± 0.011
VNTRIVVRMRHL | 0.433 ± 0.014 | 0.638 ± 0.056 | 0.701 ± 0.015 | 0.64 ± 0.014 | 0.704 ± 0.02 | 0.339 ± 0.0049 | 0.348 ± 0.013 | 0.529 ± 0.0082
VNWGFLVLLFQL | 0.324 ± 0.011 | 0.446 ± 0.017 | 0.513 ± 0.025 | 0.39 ± 0.035 | 0.561 ± 0.018 | 0.219 ± 0.029 | 0.25 ± 0.021 | 0.4111 ± 0.00064
VPLHPPPTVPYI | 0.704 ± 0.03 | 0.674 ± 0.063 | 0.728 ± 0.014 | 0.66 ± 0.015 | 0.7244 ± 0.0069 | 0.679 ± 0.011 | 0.675 ± 0.034 | 0.7038 ± 0.0066
VPLVQRARLRLF | 0.146 ± 0.025 | 0.639 ± 0.059 | 0.715 ± 0.02 | 0.607 ± 0.027 | 0.732 ± 0.026 | 0.109 ± 0.015 | 0.114 ± 0.012 | 0.206 ± 0.028
VPRLFSVIVVPV | 0.488 ± 0.052 | 0.517 ± 0.04 | 0.5325 ± 0.0033 | 0.39 ± 0.033 | 0.5519 ± 0.0049 | 0.359 ± 0.012 | 0.389 ± 0.03 | 0.536 ± 0.018
VRFRLLNVLASA | 0.468 ± 0.056 | 0.528 ± 0.0073 | 0.518 ± 0.048 | 0.395 ± 0.026 | 0.5582 ± 0.0043 | 0.34 ± 0.015 | 0.389 ± 0.021 | 0.5305 ± 0.0031
VRGSFRRCLSIA | 0.1981 ± 0.0011 | 0.596 ± 0.011 | 0.713 ± 0.021 | 0.623 ± 0.015 | 0.719 ± 0.012 | 0.118 ± 0.027 | 0.142 ± 0.017 | 0.325 ± 0.011
VRRSVGGWSKVG | 0.339 ± 0.022 | 0.638 ± 0.011 | 0.724 ± 0.023 | 0.636 ± 0.029 | 0.7327 ± 0.0047 | 0.158 ± 0.023 | 0.194 ± 0.037 | 0.505 ± 0.013
VRSTFVLGRWFA | 0.228 ± 0.062 | 0.57 ± 0.0089 | 0.711 ± 0.0072 | 0.653 ± 0.029 | 0.7495 ± 0.0021 | 0.133 ± 0.0064 | 0.159 ± 0.018 | 0.312 ± 0.083
VSFHFLLLVPCC | 0.105 ± 0.082 | 0.0285 ± 0.0095 | 0.0251 ± 0.0019 | 0.0609 ± 0.027 | 0.0732 ± 0.023 | 0.044 ± 0.0035 | 0.0565 ± 0.02 | 0.0701 ± 0.0096
VSFHLGVIFALS | 0.39 ± 0.0086 | 0.547 ± 0.018 | 0.5268 ± 0.0037 | 0.401 ± 0.026 | 0.536 ± 0.0072 | 0.268 ± 0.0063 | 0.343 ± 0.021 | 0.46 ± 0.013

Sequence | protein stability index (Saccharomyces cerevisiae [1]) | protein stability index (Saccharomyces cerevisiae [2]; [3]) | protein stability index (Saccharomyces cerevisiae [2]; [4]) | protein stability index (Saccharomyces cerevisiae [2]; [5]) | protein stability index (Saccharomyces cerevisiae [2]; [6]) | protein stability index (Saccharomyces cerevisiae [2]; [7]) | protein stability index (Saccharomyces cerevisiae [2]; [8]) | protein stability index (Saccharomyces cerevisiae [2]; [9])
VSFLLLSYLCSF | 0.266 ± 0.012 | 0.341 ± 0.0084 | 0.389 ± 0.01 | 0.279 ± 0.031 | 0.46 ± 0.011 | 0.172 ± 0.0023 | 0.187 ± 0.019 | 0.322 ± 0.0035
VSWDMLYFWFIQ | 0.416 ± 0.002 | 0.664 ± 0.089 | 0.693 ± 0.041 | 0.603 ± 0.059 | 0.764 ± 0.033 | 0.307 ± 0.017 | 0.304 ± 0.028 | 0.554 ± 0.016
VSYAVIVLVFKG | 0.329 ± 0.037 | 0.211 ± 0.056 | 0.317 ± 0.051 | 0.234 ± 0.026 | 0.463 ± 0.018 | 0.2 ± 0.022 | 0.22 ± 0.023 | 0.339 ± 0.04
VTVWLISRVTGL | 0.435 ± 0.0085 | 0.579 ± 0.034 | 0.67938 ± 0.00055 | 0.496 ± 0.017 | 0.647 ± 0.017 | 0.286 ± 0.035 | 0.314 ± 0.01 | 0.549 ± 0.018
VVCFGCLAFFLG | 0.497 ± 0.0057 | 0.579 ± 0.0076 | 0.613 ± 0.011 | 0.461 ± 0.021 | 0.624 ± 0.044 | 0.412 ± 0.043 | 0.409 ± 0.028 | 0.533 ± 0.027
VVFILLFFVFCR | 0.294 ± 0.019 | 0.253 ± 0.027 | 0.271 ± 0.016 | 0.24 ± 0.031 | 0.371 ± 0.0061 | 0.296 ± 0.013 | 0.25 ± 0.021 | 0.314 ± 0.022
VVGITIMVFIIT | 0.333 ± 0.069 | 0.138 ± 0.0028 | 0.195 ± 0.065 | 0.184 ± 0.045 | 0.312 ± 0.0043 | 0.15 ± 0.018 | 0.185 ± 0.027 | 0.326 ± 0.046
VVIGAVLFVVVR | 0.29 ± 0.012 | 0.0736 ± 0.0063 | 0.21 ± 0.015 | 0.157 ± 0.028 | 0.291 ± 0.0065 | 0.12 ± 0.0087 | 0.134 ± 0.035 | 0.25 ± 0.005
VVIWGMLLCGLG | 0.44 ± 0.029 | 0.447 ± 0.0096 | 0.502 ± 0.009 | 0.353 ± 0.029 | 0.539 ± 0.026 | 0.326 ± 0.015 | 0.348 ± 0.018 | 0.487 ± 0.016
VVTICVASWSGL | 0.42 ± 0.0091 | 0.521 ± 0.038 | 0.573 ± 0.011 | 0.352 ± 0.017 | 0.54018 ± 4.7e-05 | 0.362 ± 0.029 | 0.36 ± 0.027 | 0.532 ± 0.012
VVTVCIIRLAWG | 0.367 ± 0.036 | 0.219 ± 0.0046 | 0.315 ± 0.056 | 0.215 ± 0.025 | 0.386 ± 0.014 | 0.189 ± 0.013 | 0.225 ± 0.018 | 0.342 ± 0.019
VVVLRRVIEVMQ | 0.342 ± 0.0062 | 0.327 ± 0.015 | 0.37 ± 0.025 | 0.256 ± 0.03 | 0.448 ± 0.013 | 0.199 ± 0.0065 | 0.253 ± 0.027 | 0.413 ± 0.012
VVVRFCLGICFC | 0.388 ± 0.011 | 0.36066 ± 0.00017 | 0.408 ± 0.013 | 0.301 ± 0.022 | 0.438 ± 0.021 | 0.265 ± 0.0087 | 0.288 ± 0.017 | 0.41 ± 0.012
VWAWAVVVFVVL | 0.241 ± 0.009 | 0.196 ± 0.054 | 0.343 ± 0.0075 | 0.205 ± 0.02 | 0.379 ± 0.017 | 0.171 ± 0.01 | 0.2 ± 0.035 | 0.385 ± 0.046
VWEKGVCGRMVG | 0.703 ± 0.0081 | 0.676 ± 0.015 | 0.7689 ± 0.0024 | 0.652 ± 0.021 | 0.744 ± 0.037 | 0.639 ± 0.012 | 0.6609 ± 0.0066 | 0.7276 ± 0.0072
VWSFFTSFIRYI | 0.169 ± 0.028 | 0.5614 ± 0.0036 | 0.647 ± 0.018 | 0.6542 ± 0.0065 | 0.752 ± 0.041 | 0.106 ± 0.0018 | 0.109 ± 0.022 | 0.114 ± 0.0081
VWVISLCIGGGG | 0.312 ± 0.013 | 0.297 ± 0.0044 | 0.369 ± 0.015 | 0.24 ± 0.028 | 0.405 ± 0.011 | 0.213 ± 0.025 | 0.225 ± 0.021 | 0.3796 ± 0.0035
VWVLLCKYVILL | 0.218 ± 0.0091 | 0.228 ± 0.034 | 0.3521 ± 0.0031 | 0.237 ± 0.036 | 0.457 ± 0.0046 | 0.139 ± 0.021 | 0.145 ± 0.014 | 0.268 ± 0.023
VWWGVGVWLLVG | 0.147 ± 0.04 | 0.104 ± 0.025 | 0.176 ± 0.02 | 0.242 ± 0.015 | 0.369 ± 0.011 | 0.0694 ± 0.016 | 0.0673 ± 0.018 | 0.0755 ± 0.036
